The record followed here is publication PMC4294677 (Molecular Biology of the Cell, 2015).

Experiment [1] has as its target HOPS (homotypic fusion and vacuole protein sorting complex) (S. cerevisiae, UniProt P12868;Q03308;P27801;P20795;Q07468;P38959). In words: liposome floatation.
In experiment [2] the target is phospho-HOPS (HOPS phosphorylated by the vacuolar kinase Yck3p) (S. cerevisiae, UniProt P12868;Q03308;P27801;P20795;Q07468;P38959). Kind of experiment: liposome floatation.

B1: Ypt7p:GTP (vacuolar Rab-family GTPase Ypt7p in its GTP-bound state) (natural protein)
chain: MSSRKKNILKVIILGDSGVGKTSLMHRYVNDKYSQQYKATIGADFLTKEVTVDGDKVATMQVWDTAGQERFQSLGVAFYRGADCCVLVYDVTNASSFENIKSWRDEFLVHANVNSPETFPFVILGNKIDAEESKKIVSEKSAQELAKSLGDIPLFLTSAKNAINVDTAFEEIARSALQQNQADTEAFEDDYNDAINIRLDGENNSCSC
As to B1, the binding result in experiment [1] and in experiment [2] was “binds” each time.
